Values quoted from earlier work in publication PMC11211486.

Assays:
[1] = biological target: PBP4 (Escherichia coli) (UniProt P24228)
[2] = biological target: MepS (Escherichia coli) (UniProt P0AFV4)
[3] = biological target: MepM (Escherichia coli) (UniProt P0AFS9)
Sequence of MepM (Escherichia coli) (P0AFS9 whole entry): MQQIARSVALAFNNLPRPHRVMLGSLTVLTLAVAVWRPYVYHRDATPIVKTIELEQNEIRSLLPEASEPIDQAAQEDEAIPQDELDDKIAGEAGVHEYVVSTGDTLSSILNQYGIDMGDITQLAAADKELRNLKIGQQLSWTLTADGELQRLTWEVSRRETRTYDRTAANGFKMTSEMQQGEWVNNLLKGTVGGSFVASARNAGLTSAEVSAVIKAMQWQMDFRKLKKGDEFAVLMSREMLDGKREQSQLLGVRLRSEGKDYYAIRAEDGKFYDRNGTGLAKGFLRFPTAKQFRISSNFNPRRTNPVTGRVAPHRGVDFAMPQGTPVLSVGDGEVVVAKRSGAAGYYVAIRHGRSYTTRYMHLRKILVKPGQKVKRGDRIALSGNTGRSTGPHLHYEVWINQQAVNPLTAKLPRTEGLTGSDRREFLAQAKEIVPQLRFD

Sequence of NlpI (C4ZSQ4 19-294): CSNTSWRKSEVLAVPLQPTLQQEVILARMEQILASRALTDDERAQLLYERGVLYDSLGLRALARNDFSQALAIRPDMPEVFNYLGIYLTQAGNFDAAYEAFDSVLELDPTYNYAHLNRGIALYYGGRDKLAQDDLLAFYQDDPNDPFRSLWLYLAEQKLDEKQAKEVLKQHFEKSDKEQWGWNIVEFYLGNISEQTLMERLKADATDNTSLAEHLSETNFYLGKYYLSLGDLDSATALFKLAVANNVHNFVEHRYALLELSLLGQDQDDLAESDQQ
Sequence of MepS (Escherichia coli) (P0AFV4 27-188): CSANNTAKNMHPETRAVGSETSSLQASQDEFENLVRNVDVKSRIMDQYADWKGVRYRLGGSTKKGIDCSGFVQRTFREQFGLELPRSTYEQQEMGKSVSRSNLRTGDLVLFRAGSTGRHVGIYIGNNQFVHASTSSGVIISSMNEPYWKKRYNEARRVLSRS
Sequence of PBP4 (Escherichia coli) (P24228 21-477): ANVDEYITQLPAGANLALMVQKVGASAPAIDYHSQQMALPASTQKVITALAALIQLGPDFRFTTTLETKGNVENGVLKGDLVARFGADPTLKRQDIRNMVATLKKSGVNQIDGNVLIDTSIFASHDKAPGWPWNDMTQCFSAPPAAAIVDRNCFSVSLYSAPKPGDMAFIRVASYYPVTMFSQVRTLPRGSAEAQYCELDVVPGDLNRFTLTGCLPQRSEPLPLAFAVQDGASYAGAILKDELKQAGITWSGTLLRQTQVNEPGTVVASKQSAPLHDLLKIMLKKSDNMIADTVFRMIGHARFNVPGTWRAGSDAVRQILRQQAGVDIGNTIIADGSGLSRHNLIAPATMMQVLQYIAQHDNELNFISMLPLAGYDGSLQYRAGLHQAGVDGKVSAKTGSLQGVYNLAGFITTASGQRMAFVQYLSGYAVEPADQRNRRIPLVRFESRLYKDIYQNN

Kd [1]: 150 nM
Kd [2]: 150 nM
Kd [3]: 150 nM
Substance: NlpI (from UniProt C4ZSQ4)
